{"source": "paper PMC2330189", "about": "(Acta Crystallographica Section F: Structural Biology and …, 2007)", "proteins": {"B1": {"name": "1,3-propanediol dehydrogenase from Klebsiella pneumoniae (enzyme, UniProt Q59477 1-387, looked up)", "chain": "MSYRMFDYLVPNVNFFGPNAISVVGERCQLLGGKKALLVTDKGLRAIKDGAVDKTLHYLREAGIEVAIFDGVEPNPKDTNVRDGLAVFRREQCDIIVTVGGGSPHDCGKGIGIAATHEGDLYQYAGIETLTNPLPPIVAVNTTAGTASEVTRHCVLTNTETKVKFVIVSWRNLPSVSINDPLLMIGKPAALTAATGMDALTHAVEAYISKDANPVTDAAAMQAIRLIARNLRQAVALGSNLQARENMAYASLLAGMAFNNANLGYVHAMAHQLGGLYDMPHGVANAVLLPHVARYNLIANPEKFADIAELMGENITGLSTLDAAEKAIAAITRLSMDIGIPQHLRDLGVKEADFPYMAEMALKDGNAFSNPRKGNEQEIAAIFRQAF"}}, "molecular_target": "the molecule itself", "assay": "SEC"}
{"protein": "B1", "values": [{"measurement": "stoichiometry N", "value": 10}]}
